The target in experiment [1] is T1, parathyroid hormone (PTH) peptide (UniProt P01270 32-65, TAMRA label in FP assays (PTH-TAMRA), site not stated; biotinylated in yeast display).
T1 peptide: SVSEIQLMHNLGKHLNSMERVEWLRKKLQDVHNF
The experiment in a line: Split NanoBiT titration.

In another experiment the target is glucagon (GCG) (UniProt P01275 53-81, fluorescently labeled (FAM or TAMRA) in FP assays, site not stated; biotinylated in yeast display). The experiment in a line: FP.
The next experiment deals with T2, secretin (SCT) (UniProt P09683 28-54, fluorescently labeled (FAM or TAMRA) in FP assays, site not stated).
T2 peptide: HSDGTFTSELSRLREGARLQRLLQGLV
Description: FP.

glucagon (GCG), sequence (P01275 53-81): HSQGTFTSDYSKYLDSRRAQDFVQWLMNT

B1: parametrically designed PTH binder (SEQ ID NO: 1) (designed binder)
chain: SQELIEELIKLAKELAEIKDEEERRKIKRELERLAEELKEAPASSLLRALALLVIALALIQAAESEEERERARELLERLEELLRELEKQITDERFKEILRELEELAKELKKQL
In experiment [1], B1 returned a Kd above 1000 nM.

B2: GCG_C09 (RF Diffusion/Partial diffusion), partially diffused GCG binder, SEQ ID NO: 8 (designed binder)
chain: SMEKLAEIMQEIIEAYQEVKDAFFKFIKAVHEGAPEEELKKYLEKMKEALEKMKELLERLEKEAKKVIEENKDKKLELKVLLMLRLAYLLLKVSIELTKIAAEKLGDKELVEELEKESKEVEKKIKELEERIKKLLEEVDDEELKEAYKEVEEMEKEAEKFLEKMRKV
As for B2, the Kd with glucagon (GCG) is below 0.5 nM; with secretin (SCT), 1.42 nM.

Usually Kd stands for the constant that tells how readily two partners part at equilibrium. Low readings indicate tighter binding, high ones weaker binding.

(Values after patent publication US20260201015A1 (published 2026).)
